Experimental data taken from patent US20210070804A1 (published 2021).

Assays:
[1] = biological target: clone nr 1.1 (SEQ ID NO: 1), monoclonal phage; test: cross reactivity phage ELISA on coated toxin
[2] = biological target: clone nr 1.2 (SEQ ID NO: 2), monoclonal phage; test: cross reactivity phage ELISA on coated toxin
[3] = biological target: clone nr 1.4 (SEQ ID NO: 3), monoclonal phage; test: cross reactivity phage ELISA on coated toxin
[4] = biological target: clone nr 1.8 (SEQ ID NO: 4), monoclonal phage; test: cross reactivity phage ELISA on coated toxin
[5] = biological target: clone nr 1.9 (SEQ ID NO: 5), monoclonal phage; test: cross reactivity phage ELISA on coated toxin
[6] = biological target: clone nr 4.10 (SEQ ID NO: 6), monoclonal phage; test: cross reactivity phage ELISA on coated toxin
[7] = biological target: clone nr 1.8 (SEQ ID NO: 4), monoclonal phage; test: phage ELISA, dilution series 1/10 to 1/1000
[8] = biological target: clone nr 1.9 (SEQ ID NO: 5), monoclonal phage; test: phage ELISA, dilution series 1/10 to 1/1000
[9] = biological target: clone nr 4.10 (SEQ ID NO: 6), monoclonal phage; test: phage ELISA, dilution series 1/10 to 1/1000
[10] = biological target: clone nr 1.1 (SEQ ID NO: 1), monoclonal phage; test: monoclonal phage ELISA on coated myotoxin II
TAMRA-labeled JB006 = test: fluorescence polarization with TAMRA-labeled JB006

Measured: binding result

B1: α-cobra toxin (a-cbtx) from Naja kaouthia (other)
chain: IRCFITPDITSKDCPNGHVCYTKTWCDAFCSIRGKRVDLGCAATCPTVKTGVDIQCCSTDNCNPFPTRKRP
binds: [1] | [2] | [3] | [4] | [5] | [6]

B2: Myotoxin II from venom of Bothrops asper (other)
chain: SLFELGKMILQETGKNPAKSYGAYGCNCGVLGRGKPKDATDRCCYVHKCCYKKLTGCNPKKDRYSYSWKDKTIVCGENNSCLKELCECDKAVAICLRENLNTYNKKYRYYLKPLCKKADAC
not listed: [1] | [4] | [5] | [6]
binds: all other assays above
